Data on one molecule can be found in PMC8683085, “Serine ADP-ribosylation marks nucleosomes for ALC1-dependent chromatin remodeling” (eLife, 2021).

Assay [1] addresses T1, PARP1 SerADPr_(long) (UniProt P09874 1-1014, long serine-linked ADP-ribose chains; a small population of aspartate- and/or glutamate-linked ADPr; sites not told).
T1 construct: PARP1, full-length construct, as m15; also called serine-auto-ADP-ribosylated PARP1 with long chains; automodified PARP1
In words: co-IP; purified components: 100 nM FLAG-ALC1, 50 nM unmodified or H3S10ADPr3 nucleosomes, 100 nM PARP1 (unmodified, SerADPr long or short); 100 mM KCl, 25 mM HEPES pH 7.9, 2 mM MgCl2, 5% glycerol, 0.1% NP-40, 1 mM DTT; anti-FLAG M2 magnetic resin; western blot. The conditions noted are these: both partners purified. Background: A western blot detects proteins with antibodies after separation by electrophoresis.

Assay [2] addresses T2, PARP1 SerADPr_(short) (UniProt P09874 1-1014, relatively short serine-linked ADP-ribose chains; sites not told).
T2 construct: PARP1, full-length construct, as m15; also called serine-auto-ADP-ribosylated PARP1 with relatively short chains; automodified PARP1
The description is as above. The conditions noted are these: both partners purified.

Assay [3] deals with H2BS6/H3S10ADPr4 nucleosome (UniProt P68431 22-136; P62805 1-103, H3A21C, tetra-ADP-ribose on S6 | tetra-ADP-ribose on S10). Briefly: cell-based or functional assay.

T1 sequence (P09874 whole entry): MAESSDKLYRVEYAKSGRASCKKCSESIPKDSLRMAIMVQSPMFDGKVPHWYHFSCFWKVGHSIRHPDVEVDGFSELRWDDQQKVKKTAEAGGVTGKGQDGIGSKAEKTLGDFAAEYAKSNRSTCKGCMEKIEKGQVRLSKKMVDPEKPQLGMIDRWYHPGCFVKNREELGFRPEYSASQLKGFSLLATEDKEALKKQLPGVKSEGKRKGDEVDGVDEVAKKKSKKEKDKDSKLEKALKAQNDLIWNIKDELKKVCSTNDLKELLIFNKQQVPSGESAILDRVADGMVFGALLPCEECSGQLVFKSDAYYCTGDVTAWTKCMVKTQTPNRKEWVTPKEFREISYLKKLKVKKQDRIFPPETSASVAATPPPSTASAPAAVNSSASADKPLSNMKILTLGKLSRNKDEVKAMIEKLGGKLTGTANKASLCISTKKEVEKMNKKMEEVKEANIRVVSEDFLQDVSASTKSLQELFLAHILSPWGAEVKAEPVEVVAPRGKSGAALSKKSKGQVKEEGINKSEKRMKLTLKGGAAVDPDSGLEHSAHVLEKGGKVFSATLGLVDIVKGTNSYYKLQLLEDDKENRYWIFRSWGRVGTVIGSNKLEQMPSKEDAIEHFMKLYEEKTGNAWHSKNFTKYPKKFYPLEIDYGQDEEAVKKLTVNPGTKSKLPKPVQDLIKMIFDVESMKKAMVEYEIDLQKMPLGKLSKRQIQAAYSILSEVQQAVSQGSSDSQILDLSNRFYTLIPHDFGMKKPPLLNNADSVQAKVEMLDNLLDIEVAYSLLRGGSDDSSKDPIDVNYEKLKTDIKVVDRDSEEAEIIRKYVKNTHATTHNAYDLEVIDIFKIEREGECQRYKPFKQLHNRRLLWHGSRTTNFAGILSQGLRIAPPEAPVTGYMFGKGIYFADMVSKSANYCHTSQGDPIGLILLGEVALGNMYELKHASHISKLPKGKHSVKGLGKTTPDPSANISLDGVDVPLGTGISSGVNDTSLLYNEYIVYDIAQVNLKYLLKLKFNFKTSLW
T2 sequence (P09874 whole entry): as above

B1: ALC1 (full-length, 6xHis-1xFLAG-ALC1) (enzyme, UniProt Q86WJ1 1-897, looked up)
chain: MERAGATSRGGQAPGFLLRLHTEGRAEAARVQEQDLRQWGLTGIHLRSYQLEGVNWLAQRFHCQNGCILGDEMGLGKTCQTIALFIYLAGRLNDEGPFLILCPLSVLSNWKEEMQRFAPGLSCVTYAGDKEERACLQQDLKQESRFHVLLTTYEICLKDASFLKSFPWSVLVVDEAHRLKNQSSLLHKTLSEFSVVFSLLLTGTPIQNSLQELYSLLSFVEPDLFSKEEVGDFIQRYQDIEKESESASELHKLLQPFLLRRVKAEVATELPKKTEVVIYHGMSALQKKYYKAILMKDLDAFENETAKKVKLQNILSQLRKCVDHPYLFDGVEPEPFEVGDHLTEASGKLHLLDKLLAFLYSGGHRVLLFSQMTQMLDILQDYMDYRGYSYERVDGSVRGEERHLAIKNFGQQPIFVFLLSTRAGGVGMNLTAADTVIFVDSDFNPQNDLQAAARAHRIGQNKSVKVIRLIGRDTVEEIVYRKAASKLQLTNMIIEGGHFTLGAQKPAADADLQLSEILKFGLDKLLASEGSTMDEIDLESILGETKDGQWVSDALPAAEGGSRDQEEGKNHMYLFEGKDYSKEPSKEDRKSFEQLVNLQKTLLEKASQEGRSLRNKGSVLIPGLVEGSTKRKRVLSPEELEDRQKKRQEAAAKRRRLIEEKKRQKEEAEHKKKMAWWESNNYQSFCLPSEESEPEDLENGEESSAELDYQDPDATSLKYVSGDVTHPQAGAEDALIVHCVDDSGHWGRGGLFTALEKRSAEPRKIYELAGKMKDLSLGGVLLFPVDDKESRNKGQDLLALIVAQHRDRSNVLSGIKMAALEEGLKKIFLAAKKKKASVHLPRIGHATKGFNWYGTERLIRKHLAARGIPTYIYYFPRSKSAVLHSQSSSSSSRQLVP
notes: ALC1 (CHD1L), full-length gene synthesized by Twist Biosciences; also called FLAG-tagged ALC1; recombinant, full-length ALC1; source: Sf9 (baculovirus), purified (anti-FLAG M2 magnetic resin, FLAG peptide elution); not shown: FLAG, N-terminal, kept
For the molecule B1, the binding result in assay [1] and in assay [2] was “binds” in each case. For the same molecule, the “ALC1 remodeling rate constant relative to the unmodified nucleosome (REA assay)” value in assay [3] was around 370 fold.
